Reference: the supplement of paper PMC9170038

Tested on: MS2 coat protein
Test: apparent KD of MS2 coat protein; designed switch direction (-1 OFF switch, 1 ON switch): 1; higher = weaker reporter binding
Details: Eterna round: R98
Method: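 RNA-MaP: designed FMN/MS2 RNA switches (84 nt design region) are transcribed on-chip within common flanks and titrated with SNAP-549-labelled MS2 coat protein (about 1-3000 nM) in 100 mM Tris pH 7.5, 80 mM KCl, 4 mM MgCl2, without or with 200 uM FMN. Median apparent KD per design; activation ratio = KD,OFF / KD,ON.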

| Sequence | apparent KD of MS2 coat protein (input ligand: FMN 200 uM) | apparent KD of MS2 coat protein (input ligand: none) |
| --- | --- | --- |
| UAGUGUUCUCGAGGAUAUGGGUUCCGUUUUAGCCCAGAAGGCGAACAUGAGGAUCACCCAUGUAUGAAUACACAGCAGAAUUGU [Teedri] | 153 nM | 1750 nM |
| CACGUCCUCACAGGAUAUGCUGGACUUUGUCCAGCAGAAGGGUGAAACAUGAGGAUCACCCAUGUAAGGACGUGUAUAUUUAAU [Denovo 21] | 1470 nM | 187 nM |
| AAACUUAUCACAGGAUAUUCCUGAGGAUGCCAGGGAGAAGGGUGACUCUUGGGACAUGAGGAUCACCCAUGUUCUGUGGGAAAA [Xeusdior] | 190 nM | 182 nM |
| AAAAUAAAAUAAAUUAACAUGAGGAUCACCCAUGUCGCUAGACAGGAUAUAUAAAAUAAAAUAAAGUAGAAGGGUCAAAUAAAA [LRO001_SS NG 3] | 88.2 nM | 114 nM |
| CCGAAUGUCACAGGAUAUGGUCCGGGCACGCGACCAGAAGGGUGAUCUCACAUGAGGAUCACCCAUGUGUAGGCGUUAGACUAC [Dierata] | 191 nM | 96.6 nM |
| ACGUUAAUUCGAGGAUAUCGGUGAUUUAUAUUACGAGAAGGCGAUAAUUGUGAACAACUUAUAGACAUGAGGAUCACCCAUGUA [JR_SSNG1_Sub065] | 21.3 nM | 28.6 nM |
| GGGUGGGUCACAGGAUAUCCCGUGAGCCACAUGAGGAUCACCCAUGUAUCACGACGAAAGAAGAAGGAGAAGGGUGACCCUGAU [Tibiiste] | 29.8 nM | 40.7 nM |
| UAUAUAUAUUGAGGAUAUGCACAGGAUCACCGUGUAGAAGGCAUCAGGGAGAAGGUGCAGAGGAUCACCCUGUAAGGAUAUCAU [pwkr2 ssNG1 DX.1] | 146 nM | 205 nM |
| UUUAUUUUUAGAGGAUAUAUAGAGAGAGAGAGAAUAGAAGGCUAAACAUACAUGAACAUGAGGAUCACCCAUGUCACCCAUGUU [Attempt 2] | 34.3 nM | 28.3 nM |
| UAUUUAUGGUGAGGAUAUGCAAAGGAUCACCUUGUAGAAGGCAUCAGGUAGAAGGUGCAGAGGAUCACCCUGUAAGGAUAUAUC [pwkr2 ssNG1 DX.22] | 66.1 nM | 232 nM |
| CGGAUCGCAUGAGGAUAUGGUCAGCUUUGCUGACCAGAAGGCAUGUCAAUAGACAUGAGGAUCACCCAUGUAGUUAAGAUCCGA [Mat - Same State NG 1 - JL Mod - D17] | 45.5 nM | 644 nM |
| AGCGGUAGGACAGGAUAUGGUGACUUCAAGCGGCCAGAAGGGUCCCGACAUGAGGAUCACCCAUGUCUUCCAGGCAGGAAGCGC [Bequques] | 443 nM | 239 nM |
| UCACUCACGUUAGGAUAUGGAUCGGAAAACGAUCCAGAAGGAACCUGCAAACCUGAGGAACACCCAGGUUCCAAUAACGAGUGA [SameSame 8 - Jieux - Same State NG 1] | 745 nM | 839 nM |
| GUAACAUGAGGAUCACCCAUGUCGUGCUAGAUGAGUUCUGGUGAGGAUAUACAUGGUAAAUAACUGUAGAAGGCACUGGGUACA [SameState #67 NG3] | 44.7 nM | 133 nM |
| UUUAUUUAUUGAGGAUAUGCACAGGAUCACCGUGUAGAAGGCAUCAGGGAGAAGGUGCAGAGGAUCACCCUGUAAGGAUAUCAC [pwkr2 ssNG1 DX.2] | 144 nM | 381 nM |
| GUCGAAUUCUUAGGAUAUCGAGUGGAAUACACUCGAGAAGGAAGAUAUACCUGAGGAUCACCCAGGUUAAACUGAACGACAAUA [Same State NG1 - A3C, U17G Submission 7C] | 17.6 nM | 17.6 nM |
| AAAAUAUAAUAUAUUAACAUGAGGAUCACCCAUGUCGCUAGACAGGAUAUAUAAAAUAAAAUAAAGUAGAAGGGUCAUAUAAUA [LRO003_SS NG 3] | 93.9 nM | 56.4 nM |
